Publication PMC8556268 (Communications Biology, 2021)
Several values for one entry are separate records, joined by “and”; a condition that tells them apart may be missing. Equal entries are not always repeated.

B1: tcTRP9_(3)-VHH678_(3) (VHH)
VHH: QVQLQESGGGLVQAGGSLRLSCAASGRTFSEYAMGWFRQAPGKEREFVATISWSGGSTYYTRSVKGRFTISRDNAKNTVYLQMNSLKPDDTAVYYCAAAGLGTVVSEWDYDYDYWGQGTQVTVSS
notes: also called tcTRP9x3_VHH6783; construct 678; source: E. coli BL21(DE3)-RIL, purified (Ni-NTA, dialysis into 1x PBS)
B2: tcTRP9_(3)-VHH681_(3) (VHH)
VHH: B1 VHH
notes: also called tcTRP9x3_VHH6813; construct 681; source: E. coli BL21(DE3)-RIL, purified (Ni-NTA, dialysis into 1x PBS)
B3: tcTRP9_(3)-VHH682_(3) (VHH)
VHH: B1 VHH
notes: also called tcTRP9x3_VHH6823; construct 682; source: E. coli BL21(DE3)-RIL, purified (Ni-NTA, dialysis into 1x PBS)
B4: tcTRP9_(3)-VHH683_(3) (VHH)
VHH: B1 VHH
notes: also called tcTRP9x3_VHH6833; construct 683; source: E. coli BL21(DE3)-RIL, purified (Ni-NTA, dialysis into 1x PBS)
B5: tcTRP9_(3)-VHH684_(3) (VHH)
VHH: B1 VHH
notes: also called tcTRP9x3_VHH6843; construct 684; source: E. coli BL21(DE3)-RIL, purified (Ni-NTA, dialysis into 1x PBS)
B6: tcTRP9x3_VHH685_(3) (VHH)
VHH: B1 VHH
notes: also called construct 685; source: E. coli BL21(DE3)-RIL, purified (Ni-NTA, dialysis into 1x PBS)
B7: tcTRP9_(3)-VHH679_(3) (VHH)
VHH: B1 VHH
notes: also called tcTRP9x3_VHH6793; construct 679; source: E. coli BL21(DE3)-RIL, purified (Ni-NTA, dialysis into 1x PBS)
B8: tcTRP9_(3)-VHH680_(3) (VHH)
VHH: B1 VHH
notes: also called tcTRP9x3_VHH6803; construct 680; source: E. coli BL21(DE3)-RIL, purified (Ni-NTA, dialysis into 1x PBS)
B9: tcTRP9_(3)-VHH681_(3) (trimeric tcTRP9_(3) with VHH 72D61R on each subunit, construct 681) (VHH)
VHH: B1 VHH
notes: also called tcTRP9_(3)-VHH3; tcTRP9x3-VHH3; source: E. coli, purified (Ni-NTA, dialysis into 1x PBS)
B10: tcTRP9_(3)-VHH3 construct 680 (trimeric tcTRP9_(3) with VHH 72D61R on each subunit) (VHH)
VHH: B1 VHH
notes: also called tcTRP9x3-VHH3; Trimeric VHH 72D61R; source: E. coli, purified (Ni-NTA, dialysis into 1x PBS)

Tests used:
Conditions in all cases: both partners purified
[1] = target: T1, SARS-CoV-2 spike protein receptor-binding domain (RBD) (SARS-CoV-2, strain  …, UniProt P0DTC2); assay: ELISA
T1 construct: also called SARS-CoV-2 RBD; SARS RBD; source: provided by Roland Strong, Fred Hutchinson Cancer Research Center

[2] = target: enzymatically biotinylated SARS-CoV-2 spike protein receptor-binding domain (RBD) (SARS-CoV-2, strain  …, UniProt P0DTC2)
[3] = target: T2, SARS-CoV-2 spike protein receptor-binding domain (RBD), coated on ELISA plates (SARS-CoV-2, strain  …, UniProt P0DTC2); assay: ELISA
T2 construct: also called SARS-CoV-2 RBD; SARS-CoV2 RBD; source: provided (Roland Strong, Fred Hutchinson Cancer Research Center)

[4] = target: enzymatically biotinylated SARS-CoV-2 RBD, loaded on streptavidin biosensors (SARS-CoV-2, strain  …, UniProt P0DTC2)

Binder	EC50 [1] [nM]	other results
B1	2.06	–
B2	–	koff [2]: 3.98e-05 s⁻¹
B3	4.65	–
B4	2.69	–
B5	1.89	–
B6	1.88	–
B7	5.52	–
B8	8.01	–
B9	–	EC50 [3]: 0.4 nM and ~0.64 nM; Kd [4]: ~0.43 nM
B10	–	EC50 [3]: 12 nM
